Results from US7052908B2, “Androgen receptor coactivators” (University of Rochester, priority 1998, dated 2006).

Key:
mARt877s = assay: AR transactivation, transient transfection CAT reporter assay, mutant AR; type: cell-based, human; details: mARt877s, DHT 10^-11 to 10^-8 M
mARe708k = target: T1, mARe708k (Homo sapiens, UniProt P10275, E710K); assay: as above; type: cell-based; details: mARe708k, DHT 10^-11 to 10^-8 M
T1 construct: expressed in transfected cells; host or cells: DU145
T1 sequence (P10275 1-920 E710K): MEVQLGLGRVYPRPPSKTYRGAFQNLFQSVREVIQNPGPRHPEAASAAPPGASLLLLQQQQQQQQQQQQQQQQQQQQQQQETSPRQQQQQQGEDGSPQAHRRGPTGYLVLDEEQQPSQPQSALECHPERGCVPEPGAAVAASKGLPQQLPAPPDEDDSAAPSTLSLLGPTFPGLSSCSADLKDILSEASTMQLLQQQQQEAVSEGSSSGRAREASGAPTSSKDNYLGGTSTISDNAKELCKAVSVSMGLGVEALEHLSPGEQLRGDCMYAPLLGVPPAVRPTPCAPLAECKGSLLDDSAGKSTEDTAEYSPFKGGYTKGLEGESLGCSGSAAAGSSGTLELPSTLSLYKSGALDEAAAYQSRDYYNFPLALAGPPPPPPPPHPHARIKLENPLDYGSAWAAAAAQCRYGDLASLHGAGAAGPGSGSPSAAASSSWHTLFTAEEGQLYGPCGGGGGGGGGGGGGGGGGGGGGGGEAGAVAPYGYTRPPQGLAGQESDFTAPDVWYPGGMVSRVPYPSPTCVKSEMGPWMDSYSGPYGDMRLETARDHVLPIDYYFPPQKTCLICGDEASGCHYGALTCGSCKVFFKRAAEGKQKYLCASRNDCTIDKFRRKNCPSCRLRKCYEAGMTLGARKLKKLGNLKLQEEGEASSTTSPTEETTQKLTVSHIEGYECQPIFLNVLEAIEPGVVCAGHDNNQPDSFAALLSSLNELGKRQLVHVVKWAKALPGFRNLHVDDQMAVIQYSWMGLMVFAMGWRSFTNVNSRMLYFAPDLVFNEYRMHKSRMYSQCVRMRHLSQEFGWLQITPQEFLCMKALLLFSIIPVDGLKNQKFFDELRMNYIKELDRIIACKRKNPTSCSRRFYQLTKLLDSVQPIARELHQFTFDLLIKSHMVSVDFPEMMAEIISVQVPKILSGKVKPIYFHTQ

estrogen receptor (ER) = target: T2, estrogen receptor (ER) (Homo sapiens, UniProt P03372); assay: Steroid receptor transactivation, ERE-CAT reporter in DU145 cells; type: cell-based; details: DU145
T2 construct: expressed in transfected cells; host or cells: DU145
T2 sequence (P03372 1-595): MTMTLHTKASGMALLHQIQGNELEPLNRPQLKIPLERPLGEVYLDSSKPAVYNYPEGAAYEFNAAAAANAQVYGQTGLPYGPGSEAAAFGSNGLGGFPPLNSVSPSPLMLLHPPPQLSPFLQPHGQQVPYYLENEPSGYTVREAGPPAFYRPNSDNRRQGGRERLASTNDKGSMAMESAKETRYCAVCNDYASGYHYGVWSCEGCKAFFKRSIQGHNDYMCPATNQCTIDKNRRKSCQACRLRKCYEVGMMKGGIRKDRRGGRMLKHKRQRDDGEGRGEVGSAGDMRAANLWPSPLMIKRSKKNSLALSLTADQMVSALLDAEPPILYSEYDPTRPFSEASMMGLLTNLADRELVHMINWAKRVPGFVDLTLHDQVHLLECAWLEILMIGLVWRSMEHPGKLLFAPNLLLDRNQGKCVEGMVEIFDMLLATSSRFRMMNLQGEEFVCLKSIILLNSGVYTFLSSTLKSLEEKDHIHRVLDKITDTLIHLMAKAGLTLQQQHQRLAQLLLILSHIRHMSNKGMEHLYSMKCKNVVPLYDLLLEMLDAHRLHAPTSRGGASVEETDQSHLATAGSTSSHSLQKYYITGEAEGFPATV

AR = target: T3, AR (Homo sapiens, UniProt P10275); assay: AR transcriptional activity (MMTV-CAT) in PC3 cells
T3 sequence (P10275 1-920): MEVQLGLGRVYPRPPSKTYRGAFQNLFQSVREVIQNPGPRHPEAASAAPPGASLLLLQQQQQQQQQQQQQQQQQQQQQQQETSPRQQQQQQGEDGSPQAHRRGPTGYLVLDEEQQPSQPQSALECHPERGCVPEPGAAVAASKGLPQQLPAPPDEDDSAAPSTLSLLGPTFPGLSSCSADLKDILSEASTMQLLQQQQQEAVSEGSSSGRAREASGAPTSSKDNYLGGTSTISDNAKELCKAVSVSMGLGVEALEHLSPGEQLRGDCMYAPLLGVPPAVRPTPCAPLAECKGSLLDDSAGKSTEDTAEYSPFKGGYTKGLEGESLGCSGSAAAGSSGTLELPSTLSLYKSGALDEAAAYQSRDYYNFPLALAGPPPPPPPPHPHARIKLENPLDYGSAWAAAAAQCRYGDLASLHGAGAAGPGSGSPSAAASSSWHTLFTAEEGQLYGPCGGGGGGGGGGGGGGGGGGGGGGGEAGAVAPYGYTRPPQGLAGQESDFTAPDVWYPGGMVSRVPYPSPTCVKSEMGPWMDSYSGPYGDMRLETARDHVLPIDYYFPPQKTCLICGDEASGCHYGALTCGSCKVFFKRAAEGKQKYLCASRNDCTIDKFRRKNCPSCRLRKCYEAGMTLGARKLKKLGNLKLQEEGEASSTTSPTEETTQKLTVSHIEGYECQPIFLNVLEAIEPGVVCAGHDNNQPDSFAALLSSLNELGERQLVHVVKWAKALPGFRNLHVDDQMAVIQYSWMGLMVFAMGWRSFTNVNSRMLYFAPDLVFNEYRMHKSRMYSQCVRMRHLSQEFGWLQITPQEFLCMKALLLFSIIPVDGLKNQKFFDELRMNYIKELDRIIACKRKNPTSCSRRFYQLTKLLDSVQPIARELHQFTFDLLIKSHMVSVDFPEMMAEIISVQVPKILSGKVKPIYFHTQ

wtAR = target: T4, wtAR (Homo sapiens, UniProt P10275); assay: AR transactivation, transient transfection with MMTV-CAT reporter in DU145 cells
T4 sequence (P10275 1-920): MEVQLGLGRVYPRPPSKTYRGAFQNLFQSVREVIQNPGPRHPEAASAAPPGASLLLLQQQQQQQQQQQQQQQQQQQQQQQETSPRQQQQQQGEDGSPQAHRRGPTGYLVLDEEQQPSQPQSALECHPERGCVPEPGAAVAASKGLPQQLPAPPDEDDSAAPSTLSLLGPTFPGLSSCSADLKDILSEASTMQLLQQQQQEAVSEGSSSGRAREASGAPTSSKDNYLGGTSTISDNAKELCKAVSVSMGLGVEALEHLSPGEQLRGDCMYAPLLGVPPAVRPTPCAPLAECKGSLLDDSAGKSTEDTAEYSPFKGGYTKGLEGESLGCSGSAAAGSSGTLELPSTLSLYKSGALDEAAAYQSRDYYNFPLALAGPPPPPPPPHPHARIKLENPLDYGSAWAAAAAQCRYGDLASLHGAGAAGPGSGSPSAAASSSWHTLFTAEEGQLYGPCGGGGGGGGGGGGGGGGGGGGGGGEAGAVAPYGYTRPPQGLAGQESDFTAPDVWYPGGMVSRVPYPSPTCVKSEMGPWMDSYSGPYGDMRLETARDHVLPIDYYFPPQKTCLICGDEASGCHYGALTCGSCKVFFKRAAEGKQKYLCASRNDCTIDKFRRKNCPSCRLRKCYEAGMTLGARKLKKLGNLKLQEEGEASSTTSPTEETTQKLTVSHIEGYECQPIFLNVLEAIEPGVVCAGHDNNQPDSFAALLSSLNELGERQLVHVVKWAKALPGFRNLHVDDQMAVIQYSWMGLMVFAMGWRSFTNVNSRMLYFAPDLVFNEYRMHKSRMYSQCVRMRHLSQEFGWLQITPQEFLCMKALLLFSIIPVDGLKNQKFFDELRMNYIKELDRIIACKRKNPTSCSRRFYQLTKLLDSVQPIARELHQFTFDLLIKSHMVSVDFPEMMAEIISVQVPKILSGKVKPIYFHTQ

enhancement of transactivation by ARA55 (mARe708k): 4–8 fold
effect of ARA55 on ER transcriptional activation (estrogen receptor (ER)): marginal effect
increase of AR transcriptional activity on transfection with exogenous ARA55 (AR): 4 fold
AR transcriptional activity induction with ARA55 cotransfected (wtAR; 10 nM DHT plus ARA55, DU145): 22.8 fold
further increase of the DHT induction of AR transcriptional activity by ARA55 (wtAR; 10 nM DHT, dose-dependent, plateau at AR:ARA55 1:4.5, DU145): 5.3 fold
enhancement of transactivation by ARA55 (wtAR; wtAR, DHT 10^-11 to 10^-8 M): 4–8 fold
B1: ARA55: androgen receptor coactivator, 444 aa, SEQ ID NO:4, 91% homology with mouse hic5 (protein)
chain: MPRSGAPKERPAEPLTPPPSYGHQPTGQSGESSGASGDKDHLYSTVCKPRSPKPAAPAAPPFSSSSGVLGTGLCELDRLLQELNATQFNITDEIMSQFPSSKVASGEQKEDQSEDKKRPSLPSSPSPGLPKASATSATLELDRLMASLPDFRVQNHLPASGPTQPPVVSSTNEGSPSPPEPTAKGSLDTMLGLLQSDLSRRGVPTQAKGLCGSCNKPIAGQVVTALGRAWHPEHFVCGGCSTALGGSSFFEKDGAPFCPECYFERFSPRCGFCNQPIRHKMVTALGTHWHPEHFCCVSCGEPFGDEGFHEREGRPYCRRDFLQLFAPRCQGCQGPILDNYISALSLLWHPDCFVCRECFAPFSGGSFFEHEGRPLCENHFHARRGSLCPTCGLPVTGRCVSALGRRFHPDHFACTFCLRPLTKGSFQERAGKPYCQPCFLKLFG
modifications: Homo sapien
enhancement of transactivation by ARA55 (mARt877s): 4–8 fold
